Measured values as given in article PMC10163345 (2023).
Where no end group is shown, it is not given here.

Target: constitutively active truncated His-tagged WT calcineurin (6×His–CNAαWT:CNB) (Homo sapiens (Human),Homo sapiens …, UniProt Q08209,P63098)
Test: His-tag pulldown + immunoblot

Chain of constitutively active truncated His-tagged WT calcineurin (6×His–CNAαWT:CNB) (Q08209 1-392, one chain of several): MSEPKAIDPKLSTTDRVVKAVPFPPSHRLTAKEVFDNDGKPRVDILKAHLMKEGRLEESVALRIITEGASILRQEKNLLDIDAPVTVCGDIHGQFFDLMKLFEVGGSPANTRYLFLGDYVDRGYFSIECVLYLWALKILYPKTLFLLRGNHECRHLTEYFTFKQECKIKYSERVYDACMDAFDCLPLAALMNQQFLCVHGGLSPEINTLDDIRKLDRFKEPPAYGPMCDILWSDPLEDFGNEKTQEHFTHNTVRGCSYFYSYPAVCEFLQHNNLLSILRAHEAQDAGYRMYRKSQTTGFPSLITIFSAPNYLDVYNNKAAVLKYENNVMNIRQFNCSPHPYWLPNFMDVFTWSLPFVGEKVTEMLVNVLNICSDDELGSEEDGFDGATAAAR

binding result: binds
Binder: KGELVPDVRISTIHDI (protein, also: GST-tagged fusion) [GST-tagged POC5 PxIxIT peptide (POC5 PDVRIS)]
